Assay results from US20250011363A1, “OPTIMIZED SHORTENED PEPTIDE THAT BINDS TO ACETYLCHOLINE RECEPTOR, AND USE THEREOF” (SKINMED CO., LTD., priority 2021, published 2025).

biological target: acetylcholine receptor (Homo sapiens, UniProt P02708); test: SPR binding affinity (RU) of optimized 5mer/6mer/7mer peptides, Examples 6-7; settings: 6mer-1 Top sequence; SPR; peptides tested at 10 μM
Summary of the method: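 Single-concentration screen: 10 μM peptide, SPR detection, binding expressed as RU.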

acetylcholine receptor, sequence (P02708 21-457): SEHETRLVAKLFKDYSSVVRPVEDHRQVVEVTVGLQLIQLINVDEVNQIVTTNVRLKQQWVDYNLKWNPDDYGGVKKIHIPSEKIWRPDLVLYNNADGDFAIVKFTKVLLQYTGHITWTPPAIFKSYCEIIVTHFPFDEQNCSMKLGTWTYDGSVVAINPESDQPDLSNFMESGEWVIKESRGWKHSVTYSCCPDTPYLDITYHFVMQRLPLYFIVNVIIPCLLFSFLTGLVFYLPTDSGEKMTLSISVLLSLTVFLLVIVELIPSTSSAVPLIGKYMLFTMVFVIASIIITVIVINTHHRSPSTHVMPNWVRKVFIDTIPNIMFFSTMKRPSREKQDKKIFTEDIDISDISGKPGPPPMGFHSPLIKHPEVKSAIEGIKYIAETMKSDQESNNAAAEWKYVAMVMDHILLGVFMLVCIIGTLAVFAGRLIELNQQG

First: 6mer-1-325 (RRQIQR)
Second: 6mer-1-290 (RKQLTK)
The Binding affinity of the first is lower: 142 Ru for the first, 146 Ru for the second.

Going from 6mer-1-264 (RRQYQR) to 6mer-1-303 (RKQYCK), the Binding affinity falls from 128 Ru to 123 Ru.

Compared with 6mer-1-302 (RRGQSR), 6mer-1-301 (RRSILR) is higher in Binding affinity: 151 Ru for the first, 154 Ru for the second.

Compared with 6mer-1-306 (KKLFYR), 6mer-1-393 (KRLYYK) is higher in Binding affinity: 135 Ru for the first, 148 Ru for the second.

Going from 6mer-1-389 (RKLFCK) to 6mer-1-213 (KRRVRK), the Binding affinity rises from 125 Ru to 127 Ru.

same assay, conditions: 6mer-2 Top sequence; SPR; peptides tested at 10 μM

Going from 6mer-2-12 (RQFQRK) to 6mer-2-95 (RRIYRK), the Binding affinity falls from 147 Ru to 142 Ru.

Compared with 6mer-2-97 (RQFYRK), 6mer-2-158 (RSFLRR) is lower in Binding affinity: 154 Ru for the first, 145 Ru for the second.

Going from 6mer-2-71 (KQVYKR) to 6mer-2-164 (KRQRRK), the Binding affinity falls from 141 Ru to 135 Ru.

Compared with 6mer-2-163 (KWFYRR), 6mer-2-53 (KSLSRR) is lower in Binding affinity: 149 Ru for the first, 125 Ru for the second.

same assay, conditions: SPR, Resonance Units; 5mer Bottom sequence (bottom combinations); peptides tested at 10 μM

First: 5mer-969 (RNTVR)
Second: 5mer-976 (RETNR)
The Binding affinity of the first is higher: 27 Ru for the first, 16 Ru for the second.

Compared with 5mer-978 (RYDHK), 5mer-803 (RFSDR) is lower in Binding affinity: 30 Ru for the first, 11 Ru for the second.

First: 5mer-954 (KTEVK)
Second: 5mer-1044 (RDCFK)
The Binding affinity of the first is higher: 23 Ru for the first, 22 Ru for the second.

Compared with 5mer-716 (KINVR), 5mer-709 (RHTIR) is higher in Binding affinity: 25 Ru for the first, 27 Ru for the second.

Going from 5mer-665 (KTWEK) to 5mer-766 (RNMEK), the Binding affinity rises from 26 Ru to 30 Ru.

Going from 5mer-972 (KYAKR) to 5mer-710 (KEKAR), the Binding affinity rises from 14 Ru to 21 Ru.

Compared with 5mer-646 (KDTKR), 5mer-1073 (RDEAK) is higher in Binding affinity: 16 Ru for the first, 29 Ru for the second.

same assay, conditions: SPR, Resonance Units; peptides tested at 10 μM; 6mer-1 Bottom sequence

6mer-1-1083 (KKNAVR) and 6mer-1-1072 (KKCTPR) are the same in Binding affinity: 36 Ru for the first, 36 Ru for the second.

Going from 6mer-1-1088 (RRETHK) to 6mer-1-1089 (RKFTKK), the Binding affinity falls from 38 Ru to 31 Ru.

Compared with 6mer-1-1010 (KKPKHK), 6mer-1-1168 (KKEKFR) is higher in Binding affinity: 33 Ru for the first, 40 Ru for the second.

Going from 6mer-1-1134 (KRMSWK) to 6mer-1-1016 (KRHTHR), the Binding affinity falls from 22 Ru to 21 Ru.

same assay, conditions: SPR, Resonance Units; peptides tested at 10 μM; 6mer-1 Bottom sequence (Table 11)

First: 6mer-1-727 (RKANGK)
Second: 6mer-1-649 (RRIAGK)
The Binding affinity of the first is lower: 29 Ru for the first, 32 Ru for the second.

Going from 6mer-1-752 (KRPTEK) to 6mer-1-681 (KKEWKK), the Binding affinity rises from 16 Ru to 32 Ru.

6mer-1-618 (RKCHVK) gave a Binding affinity of 19 Ru.

same assay, conditions: SPR, Resonance Units; peptides tested at 10 μM; 6mer-2 Bottom sequence

First: 6mer-2-617 (RCNGRR)
Second: 6mer-2-845 (KMKEKR)
The Binding affinity of the first is higher: 32 Ru for the first, 14 Ru for the second.

6mer-2-641 (REEFRR) and 6mer-2-618 (KHHKKR) are the same in Binding affinity: 12 Ru for the first, 12 Ru for the second.

Compared with 6mer-2-614 (KAWIRR), 6mer-2-774 (KFDARK) is lower in Binding affinity: 19 Ru for the first, 17 Ru for the second.

Compared with 6mer-2-856 (KEPMRR), 6mer-2-988 (KMCEKK) is higher in Binding affinity: 14 Ru for the first, 41 Ru for the second.

First: 6mer-2-785 (RHCHRR)
Second: 6mer-2-864 (RKCAKK)
The Binding affinity of the first is higher: 31 Ru for the first, 12 Ru for the second.

Going from 6mer-2-956 (KFCWRR) to 6mer-2-791 (KNMNRK), the Binding affinity falls from 28 Ru to 27 Ru.

First: 6mer-2-786 (RMEMRK)
Second: 6mer-2-697 (KCAVKK)
The Binding affinity of the first is higher: 30 Ru for the first, 19 Ru for the second.

Compared with 6mer-2-639 (KHTVKK), 6mer-2-692 (KYTNRR) is higher in Binding affinity: 23 Ru for the first, 29 Ru for the second.

First: 6mer-2-630 (RYAFRR)
Second: 6mer-2-891 (RTSIRK)
The Binding affinity of the first is lower: 27 Ru for the first, 28 Ru for the second.

For 6mer-2-620 (RHTGRR), the Binding affinity was 33 Ru.

same assay, conditions: SPR, Resonance Units; peptides tested at 10 μM; 6mer-2 Top sequence

Going from 6mer-2-543 (RRQYRR) to 6mer-2-583 (KSVTKK), the Binding affinity rises from 144 Ru to 154 Ru.

Going from 6mer-2-509 (RGFYRK) to 6mer-2-494 (KGLLRR), the Binding affinity rises from 136 Ru to 144 Ru.

First: 6mer-2-593 (RSQLKR)
Second: 6mer-2-458 (RRFQRR)
The Binding affinity of the first is higher: 139 Ru for the first, 122 Ru for the second.

Compared with 6mer-2-532 (KSITKR), 6mer-2-448 (RSFRRR) is lower in Binding affinity: 147 Ru for the first, 128 Ru for the second.

Going from 6mer-2-486 (KQQSKK) to 6mer-2-503 (KVQTKK), the Binding affinity rises from 121 Ru to 154 Ru.

same assay, conditions: SPR, Resonance Units; peptides tested at 10 μM; 6mer-2 Top sequence (Table 12)

Compared with 6mer-2-349 (RRLSRR), 6mer-2-286 (KRRYKK) is higher in Binding affinity: 137 Ru for the first, 139 Ru for the second.

6mer-2-397 (RSIYRK) showed a Binding affinity of 154 Ru.

same assay, conditions: SPR, peptides at 10 μM; 6mer-2 Bottom sequence

First: 6mer-2-1123 (RITARR)
Second: 6mer-2-1046 (RNSEKR)
The Binding affinity of the first is lower: 36 Ru for the first, 39 Ru for the second.

Going from 6mer-2-1054 (KKNKKR) to 6mer-2-1024 (RFHNKR), the Binding affinity falls from 43 Ru to 37 Ru.

First: 6mer-2-1155 (RNTNRK)
Second: 6mer-2-1127 (KAAEKK)
The Binding affinity of the first is lower: 25 Ru for the first, 42 Ru for the second.

same assay, conditions: SPR, peptides tested at 10 μM; 5mer Top sequence

Going from 5mer-386 (RSFLK) to 5mer-17 (KRIYK), the Binding affinity falls from 78 Ru to 70 Ru.

Going from 5mer-152 (RRRRR) to 5mer-348 (KRQTK), the Binding affinity rises from 56 Ru to 80 Ru.

First: 5mer-497 (KRRCR)
Second: 5mer-12 (RVFLR)
The Binding affinity of the first is higher: 76 Ru for the first, 70 Ru for the second.

First: 5mer-492 (RVVLR)
Second: 5mer-413 (RWLTR)
The Binding affinity of the first is higher: 80 Ru for the first, 56 Ru for the second.

Compared with 5mer-199 (KRYQR), 5mer-69 (RSRSR) is lower in Binding affinity: 84 Ru for the first, 50 Ru for the second.

First: 5mer-158 (RWQTK)
Second: 5mer-392 (RSRLR)
The Binding affinity of the first is lower: 65 Ru for the first, 87 Ru for the second.

First: 5mer-435 (KLRQR)
Second: 5mer-174 (KGRQR)
The Binding affinity of the first is higher: 69 Ru for the first, 59 Ru for the second.

Going from 5mer-442 (KVRLR) to 5mer-416 (KLYLR), the Binding affinity rises from 61 Ru to 67 Ru.

Compared with 5mer-310 (KSRQR), 5mer-57 (KQLYR) is lower in Binding affinity: 78 Ru for the first, 73 Ru for the second.

same assay, conditions: SPR, peptides tested at 10 μM; 5mer Top sequence (top combinations)

Going from 5mer-565 (RLVSK) to 5mer-283 (KWVYK), the Binding affinity falls from 77 Ru to 51 Ru.

First: 5mer-523 (KQFQK)
Second: 5mer-242 (RGYTK)
The Binding affinity of the first is higher: 84 Ru for the first, 64 Ru for the second.

Going from 5mer-265 (RWQCR) to 5mer-225 (KRQQK), the Binding affinity falls from 77 Ru to 51 Ru.

same assay, conditions: SPR, peptides tested at 10 μM; 6mer-1 Bottom sequence (Table 11)

Going from 6mer-1-886 (RKFSNK) to 6mer-1-961 (RRTWAR), the Binding affinity rises from 17 Ru to 122 Ru.

First: 6mer-1-996 (RRPPWK)
Second: 6mer-1-930 (KKESNK)
The Binding affinity of the first is lower: 39 Ru for the first, 43 Ru for the second.

Going from 6mer-1-983 (KRPHKK) to 6mer-1-956 (KRKSNK), the Binding affinity falls from 38 Ru to 34 Ru.

First: 6mer-1-984 (KKESDK)
Second: 6mer-1-816 (RKIDFK)
The Binding affinity of the first is higher: 33 Ru for the first, 14 Ru for the second.

Compared with 6mer-1-994 (KKHEFR), 6mer-1-834 (KRNTIR) is lower in Binding affinity: 37 Ru for the first, 17 Ru for the second.

same assay, conditions: SPR, peptides tested at 10 μM; 6mer-1 Top sequence

Going from 6mer-1-433 (RKQQYR) to 6mer-1-542 (KRWFRR), the Binding affinity falls from 154 Ru to 128 Ru.

Compared with 6mer-1-535 (RRVILK), 6mer-1-423 (RRGYCK) is higher in Binding affinity: 139 Ru for the first, 147 Ru for the second.

Compared with 6mer-1-585 (RKSRQK), 6mer-1-522 (RKRRLR) is lower in Binding affinity: 144 Ru for the first, 126 Ru for the second.

First: 6mer-1-437 (RKWFLK)
Second: 6mer-1-558 (RRLIQR)
The Binding affinity of the first is lower: 131 Ru for the first, 139 Ru for the second.

Compared with 6mer-1-553 (RRGVRK), 6mer-1-488 (KKWYSK) is higher in Binding affinity: 128 Ru for the first, 135 Ru for the second.

With 6mer-1-508 (RRQFSK) the Binding affinity was 135 Ru.

same assay, conditions: SPR, peptides tested at 10 μM; 6mer-1 Top sequence (top combinations)

Going from 6mer-1-99 (RKVVYR) to 6mer-1-96 (KRGVRK), the Binding affinity falls from 136 Ru to 125 Ru.

6mer-1-197 (RRSIRR) and 6mer-1-87 (KKQVYK) are the same in Binding affinity: 139 Ru for the first, 139 Ru for the second.

First: 6mer-1-91 (RKQQCK)
Second: 6mer-1-66 (KKSISR)
The Binding affinity of the first is lower: 131 Ru for the first, 147 Ru for the second.

6mer-1-9 (RKSFCK) showed a Binding affinity of 154 Ru.

same assay, conditions: SPR; XRRGVRR-7mer and RRGVRRX-7mer

With 3644 (CRRGVRR) [compound 3644] the “Binding affinity, values relative to the RRGVRR sequence” value was 128.

same assay, conditions: SPR; XRRQRR-6mer and RRQRRX-6mer

Going from 3639 (RRQRRD) [compound 3639] to 3601 (GRRQRR) [compound 3601], the “Binding affinity, relative value to the RRQRR sequence” value rises from 65 to 132.

With 3610 (FRRQRR) [compound 3610] the “Binding affinity, relative value to the RRQRR sequence” value was 143.

same assay, conditions: SPR; peptides tested at 10 μM; 5mer Bottom sequence

Compared with 5mer-899 (RYTFR), 5mer-862 (KKNAK) is lower in Binding affinity: 31 Ru for the first, 19 Ru for the second.

Compared with 5mer-1175 (RDMIR), 5mer-1117 (RHKIR) is lower in Binding affinity: 30 Ru for the first, 11 Ru for the second.

Going from 5mer-1135 (RHTAR) to 5mer-844 (KTDPR), the Binding affinity rises from 17 Ru to 32 Ru.

First: 5mer-821 (RESDR)
Second: 5mer-880 (RCDKK)
The Binding affinity of the first is lower: 12 Ru for the first, 17 Ru for the second.

Going from 5mer-846 (RPDWR) to 5mer-1193 (KHWFK), the Binding affinity falls from 32 Ru to 22 Ru.

Compared with 5mer-1130 (RFMVR), 5mer-897 (KFCER) is higher in Binding affinity: 17 Ru for the first, 30 Ru for the second.
